# Test results as given in the supplement of paper PMC10724198.
# ± gives the standard deviation of the averaged measurements.
# Columns and labels:
# [1] = test system: Saccharomyces cerevisiae; assay: protein stability index of tFT-peptide fusion (C-terminal peptide) (PSI (0-1 scale)); higher = more stable (slower turnover); conditions: genetic background: wild type; temperature: 30 C
# [2] = test system: Saccharomyces cerevisiae; assay: as above
# Protocol: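 MPS profiling in S. cerevisiae of the tFT-X12 degron library: putative degron peptides plus stable controls, 12 aa, fused to the C-terminus of a sfGFP-mCherry timer. Cells are FACS-sorted into 8 mCherry/sfGFP bins and deep-sequenced. PSI runs from 0 (unstable) to 1 (stable). Backgrounds are wild type, das1Δ and doa10Δ at 30 °C, and wild type, das1Δ, cdc34-1 and cdc53-1 at 37 °C; 2-3 technical replicates each.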
# [3] = genetic background: cdc34-1, temperature: 37 C
# [4] = genetic background: cdc53-1, temperature: 37 C
# [5] = genetic background: das1 deletion, temperature: 30 C
# [6] = genetic background: das1 deletion, temperature: 37 C
# [7] = genetic background: doa10 deletion, temperature: 30 C
# [8] = genetic background: wild type, temperature: 30 C
# [9] = genetic background: wild type, temperature: 37 C
# 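Further: PSI is a weighted mean of sequencing reads over stability bins, variants kept only with over 10 reads, mCherry proximal and sfGFP distal, peptide attached via GGGS linker.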
Sequence,protein stability index [1],"protein stability index [2, 3]","protein stability index [2, 4]","protein stability index [2, 5]","protein stability index [2, 6]","protein stability index [2, 7]","protein stability index [2, 8]","protein stability index [2, 9]"
LVFGFSLILRVG,0.2132 ± 0.00073,0.168 ± 0.025,0.203 ± 0.0096,0.272 ± 0.054,0.356 ± 0.016,0.139 ± 0.016,0.128 ± 0.0069,0.234 ± 0.018
LVRDEVLKVKLV,0.297 ± 0.014,0.6432 ± 0.004,0.718 ± 0.011,0.643 ± 0.018,0.722 ± 0.013,0.138 ± 0.0093,0.17 ± 0.021,0.244 ± 0.0095
LVRGSRLIVIVG,0.423 ± 0.026,0.444 ± 0.01,0.473 ± 0.028,0.333 ± 0.025,0.5181 ± 0.0045,0.289 ± 0.0053,0.328 ± 0.034,0.492 ± 0.019
LYTFCSMDANPM,0.4016 ± 0.0012,0.397 ± 0.019,0.439 ± 0.011,0.439 ± 0.019,0.383 ± 0.033,0.488 ± 0.028,0.468 ± 0.0092,0.407 ± 0.04
MALAVRVVYCGA,0.378 ± 0.0028,0.349 ± 0.015,0.391 ± 0.01,0.293 ± 0.023,0.4395 ± 0.0024,0.234 ± 0.011,0.283 ± 0.027,0.415 ± 0.021
MFTIYISFVFAF,0.269 ± 0.039,0.197 ± 0.0067,0.277 ± 0.0087,0.195 ± 0.029,0.3305 ± 0.00089,0.179 ± 0.017,0.214 ± 0.0098,0.2844 ± 0.0023
MSQVRYQRATRA,0.54 ± 0.067,0.657 ± 0.074,0.676 ± 0.044,0.608 ± 0.0071,0.692 ± 0.0087,0.526 ± 0.021,0.535 ± 0.023,0.648 ± 0.011
NDKGKKTKIKIV,0.254 ± 0.058,0.659 ± 0.025,0.72 ± 0.057,0.64 ± 0.067,0.7368 ± 0.0053,0.187 ± 0.011,0.185 ± 0.024,0.343 ± 0.029
NENQIKVIMLLV,0.266 ± 0.011,0.4964 ± 0.0021,0.572 ± 0.092,0.344 ± 0.052,0.555 ± 0.0077,0.153 ± 0.0095,0.196 ± 0.04,0.268 ± 0.011
NRFRLFRLNFSV,0.302 ± 0.015,0.68 ± 0.042,0.724 ± 0.052,0.606 ± 0.02,0.751 ± 0.014,0.161 ± 0.0037,0.168 ± 0.024,0.36 ± 0.049
PATPPLRFPPSA,0.409 ± 0.0081,0.702 ± 0.032,0.7349 ± 0.0039,0.648 ± 0.01,0.7356 ± 0.0028,0.67 ± 0.033,0.668 ± 0.012,0.7075 ± 0.0036
PCTFYLFWMFFV,0.3041 ± 0.002,0.4168 ± 0.0038,0.565 ± 0.042,0.43 ± 0.018,0.6011 ± 0.0014,0.223 ± 0.011,0.228 ± 0.021,0.328 ± 0.0081
PFGPTFSPRPFR,0.773 ± 0.022,0.727 ± 0.048,0.767 ± 0.011,0.684 ± 0.015,0.7793 ± 0.0072,0.692 ± 0.023,0.701 ± 0.013,0.747 ± 0.0083
PFLSLPFLFPSS,0.531 ± 0.14,0.715 ± 0.026,0.769 ± 0.012,0.684 ± 0.0075,0.7675 ± 0.0052,0.687 ± 0.027,0.696 ± 0.027,0.757 ± 0.016
PFSLCFVFPFFF,0.187 ± 0.0097,0.52 ± 0.021,0.5891 ± 0.0011,0.567 ± 0.035,0.6329 ± 0.0063,0.143 ± 0.0063,0.174 ± 0.0044,0.28 ± 0.0092
PGWALLQLVFLK,0.456 ± 0.012,0.363 ± 0.004,0.298 ± 0.039,0.346 ± 0.032,0.4845 ± 0.0029,0.496 ± 0.035,0.353 ± 0.021,0.464 ± 0.011
PHHSPPTGPPND,0.687 ± 0.022,0.673 ± 0.011,0.737 ± 0.018,0.648 ± 0.008,0.7171 ± 0.0041,0.663 ± 0.014,0.658 ± 0.007,0.705 ± 0.0085
PLHPSSTPATPF,0.732 ± 0.034,0.69 ± 0.03,0.741 ± 0.0032,0.667 ± 0.023,0.745 ± 0.023,0.677 ± 0.026,0.6834 ± 0.0044,0.722 ± 0.02
PLLPPLSTPPPA,0.385 ± 0.062,0.69 ± 0.0086,0.732 ± 0.023,0.663 ± 0.015,0.739 ± 0.011,0.669 ± 0.022,0.677 ± 0.013,0.6983 ± 0.0039
PLPSRAPVQFLL,0.319 ± 0.021,0.624 ± 0.012,0.754 ± 0.017,0.643 ± 0.029,0.727 ± 0.0097,0.1719 ± 0.0011,0.199 ± 0.019,0.3725 ± 0.00074

Sequence,protein stability index [1],"protein stability index [2, 3]","protein stability index [2, 4]","protein stability index [2, 5]","protein stability index [2, 6]","protein stability index [2, 7]","protein stability index [2, 8]","protein stability index [2, 9]"
PLRLRCASLFAN,0.498 ± 0.086,0.62 ± 0.021,0.692 ± 0.0095,0.618 ± 0.034,0.737 ± 0.04,0.304 ± 0.018,0.362 ± 0.019,0.5647 ± 0.002
PLVLPPINLFLV,0.189 ± 0.0031,0.575 ± 0.071,0.729 ± 0.025,0.63 ± 0.017,0.7373 ± 0.0008,0.0842 ± 0.029,0.114 ± 0.019,0.136 ± 0.021
PPLPPPPPHPPP,0.488 ± 0.016,0.458 ± 0.045,0.52 ± 0.019,0.477 ± 0.0095,0.521 ± 0.023,0.501 ± 0.017,0.493 ± 0.04,0.4959 ± 0.0011
PPPLLVRPWFLV,0.214 ± 0.05,0.618 ± 0.054,0.725 ± 0.013,0.612 ± 0.029,0.741 ± 0.024,0.147 ± 0.018,0.157 ± 0.019,0.269 ± 0.02
PPPPHSAPLFLS,0.37 ± 0.0087,0.604 ± 0.007,0.697 ± 0.011,0.651 ± 0.019,0.694 ± 0.011,0.227 ± 0.0096,0.261 ± 0.032,0.458 ± 0.011
PPPPLFLIVLHL,0.434 ± 0.033,0.5196 ± 0.0015,0.621 ± 0.031,0.465 ± 0.03,0.642 ± 0.012,0.4109 ± 0.0026,0.401 ± 0.026,0.593 ± 0.023
PPPPPLAIPHPT,0.7255 ± 0.0042,0.655 ± 0.037,0.709 ± 0.013,0.661 ± 0.04,0.684 ± 0.024,0.639 ± 0.011,0.674 ± 0.031,0.7141 ± 0.0041
PPPPPPLPSPSS,0.35 ± 0.0078,0.664 ± 0.038,0.742 ± 0.024,0.64 ± 0.021,0.754 ± 0.012,0.659 ± 0.015,0.68 ± 0.023,0.699 ± 0.019
PPPPPSRPFSPP,0.502 ± 0.015,0.698 ± 0.042,0.7412 ± 0.0017,0.687 ± 0.0079,0.71 ± 0.024,0.689 ± 0.0074,0.6544 ± 0.0037,0.709 ± 0.013
PPPRSLSPPLLS,0.409 ± 0.0037,0.642 ± 0.0076,0.7372 ± 0.0019,0.643 ± 0.025,0.704 ± 0.0013,0.6711 ± 0.0062,0.659 ± 0.014,0.681 ± 0.023
PPRSRPLLRPLP,0.746 ± 0.021,0.699 ± 0.0037,0.726 ± 0.012,0.666 ± 0.022,0.7139 ± 0.0036,0.684 ± 0.033,0.684 ± 0.022,0.708 ± 0.025
PPSRVSIRLLIR,0.4017 ± 0.0039,0.446 ± 0.025,0.473 ± 0.0095,0.362 ± 0.021,0.461 ± 0.0062,0.374 ± 0.0089,0.371 ± 0.0086,0.448 ± 0.013
PRFLRWLFSLLI,0.515 ± 0.032,0.739 ± 0.039,0.704 ± 0.012,0.705 ± 0.015,0.769 ± 0.044,0.597 ± 0.0095,0.592 ± 0.014,0.739 ± 0.041
PRINTFVVVRVC,0.159 ± 0.042,0.102 ± 0.02,0.183 ± 0.015,0.216 ± 0.038,0.336 ± 0.013,0.0626 ± 0.015,0.0722 ± 0.018,0.0609 ± 0.0015
PSCLLVAPRFSS,0.755 ± 0.017,0.672 ± 0.036,0.745 ± 0.015,0.67 ± 0.022,0.712 ± 0.027,0.677 ± 0.014,0.694 ± 0.019,0.715 ± 0.0045
PSFSLLRSLTLI,0.284 ± 0.0073,0.6084 ± 0.0024,0.7024 ± 0.0056,0.6712 ± 0.0021,0.699 ± 0.022,0.192 ± 0.02,0.205 ± 0.022,0.413 ± 0.027
PTYTKYRTRQIN,0.0994 ± 0.044,0.528 ± 0.066,0.745 ± 0.025,0.62 ± 0.011,0.7536 ± 0.0066,0.0947 ± 0.015,0.133 ± 0.04,0.156 ± 0.024
PVILISWQLRCY,0.0229 ± 0.026,0.018 ± 0.0019,0.0284 ± 0.0013,0.0318 ± 0.01,0.049 ± 0.011,0.0188 ± 0.0012,0.0174 ± 0.0032,0.0417 ± 0.0029
PVPPRVNLLRVS,0.3959 ± 0.0035,0.619 ± 0.034,0.6641 ± 0.0053,0.542 ± 0.028,0.6735 ± 0.0053,0.215 ± 0.0024,0.263 ± 0.031,0.475 ± 0.011
